Laboratory results taken from EP1557429A1 (Vectron Therapeutics AG, dated 2005).

Key:
EGF receptor [1] = target: T1, EGF receptor (UniProt P00533 25-1210, limits assumed); experiment: immunofluorescence of phage on A431 cells
T1 construct: whole, on cells; also called epidermal growth factor receptor

EGF receptor [2] = target: T1, EGF receptor; experiment: competition of fdEGF phage binding to A431 cells, FACS, inhibition from mean fluorescence intensity

Binder	binding result (EGF receptor [1])	IC50 (EGF receptor [2]) [nM]
EGF1 library clone 3 (phage-displayed EGF variant) (other, displayed on phage as a coat protein fusion (pHEN3), also called EGF1 # 3; not shown: phage coat protein fusion partner of phagemid pHEN3 (and any vector tags) at the C end) NSDSECPLSHDGYCLHDGVCMYIEALDEYACNCVVGYIGERCQYRDLRWWELR	binds	–
HisEGFm1 (EGFm1 with N-terminal hexahistidyl tag) (ligand, human, UniProt P01133 971-1023, looked up, mature; Clone 6 of the EGF2 library selection, expressed in the E. coli periplasm and purified by IMAC; The preparation also held molecules of about 15 kDa (dimer size); also called purified EGFm1; soluble EGFm1; not shown: N-terminal hexahistidyl tag (HHHHHH); primer SfiHisEGF encodes ...Met-Ala-Gly-His6-Ala befor) NSDSECPLSHDGYCLHDGVCMYIEALDQYACNCVVGYIGERCQYSDLSWWELS	–	~500
